Results as given in patent US20180079819A1.

Experiments:
[1] = target: IL3Rα (1-100) chimeric receptor protein: IL3Rα residues 1-100 fused to GMRα residues 115-325, His-tagged (human) (UniProt P15509); assay: ELISA on plate-coated His-tagged protein, A450
[2] = target: extracellular domain of CD123/IL-3Rα (residues 1-306), histidine tagged (human) (UniProt P26951); assay: ELISA on plate-coated His-tagged protein, A450
Sequence of extracellular domain of CD123/IL-3Rα (residues 1-306), histidine tagged (human) (P26951 19-306): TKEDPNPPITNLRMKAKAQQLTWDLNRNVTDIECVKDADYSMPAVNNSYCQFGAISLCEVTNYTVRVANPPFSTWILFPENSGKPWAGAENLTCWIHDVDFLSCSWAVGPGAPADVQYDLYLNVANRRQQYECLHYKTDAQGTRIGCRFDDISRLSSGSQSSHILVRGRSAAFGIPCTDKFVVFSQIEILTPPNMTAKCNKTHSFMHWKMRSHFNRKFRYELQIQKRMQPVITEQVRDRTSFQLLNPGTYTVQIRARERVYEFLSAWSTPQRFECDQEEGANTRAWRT

Sequence of IL3Rα (1-100) chimeric receptor protein: IL3Rα residues 1-100 fused to GMRα residues 115-325, His-tagged (human) (P15509 other isoform, or with tags, fused parts or gaps mutant limits assumed, form in doubt): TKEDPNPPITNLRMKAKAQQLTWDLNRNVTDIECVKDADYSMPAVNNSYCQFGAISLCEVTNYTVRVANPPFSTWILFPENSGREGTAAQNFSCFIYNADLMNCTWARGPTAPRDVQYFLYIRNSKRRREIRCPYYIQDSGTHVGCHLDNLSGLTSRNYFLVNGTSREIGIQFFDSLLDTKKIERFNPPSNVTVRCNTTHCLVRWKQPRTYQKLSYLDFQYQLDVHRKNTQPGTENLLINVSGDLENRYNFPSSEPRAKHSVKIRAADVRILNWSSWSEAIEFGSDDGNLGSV

An EC50 [1] of 0.0306 nM and an EC50 [2] of 0.027 nM were found for ch7G3 (antibody) in this work.
